First the molecules themselves.
B1: T. fusca OSBS (Thermobifida fusca YX; N71A) (protein)
chain: MTGRAFAIPLRTRFRGITVREGMLVRGAAGWGEFSPFAEYGPRECARWWAACYEAAELGWPAPVRDTVPVAATVPAVGPEEAARIVASSGCTTAKVKVAERGQSEANDVARVEAVRDALGPRGRVRIDVNGAWDVDTAVRMIRLLDRFELEYVEQPCATVDELAEVRRRVSVPIAADESIRRAEDPLRVRDAEAADVVVLKVQPLGGVRAALRLAEECGLPVVVSSAVETSVGLAAGVALAAALPELPYACGLATLRLLHADVCDDPLLPVHGVLPVRRVDVSEQRLAEVEIDPAAWQARLAAARAAWEQVEREPGP
B2: T. fusca OSBS (Thermobifida fusca YX; R126M) (protein)
chain: B1 chain with A71N, R126M
B3: T. fusca OSBS (Thermobifida fusca YX) (protein)
chain: B1 chain with A71N
B4: T. fusca OSBS (Thermobifida fusca YX; R15A) (protein)
chain: B1 chain with R15A, A71N
B5: T. fusca OSBS (Thermobifida fusca YX; F37A) (protein)
chain: B1 chain with F37A, A71N
B6: T. fusca OSBS (Thermobifida fusca YX; G252T) (protein)
chain: B1 chain with A71N, G252T
B7: T. fusca OSBS (Thermobifida fusca YX; G252A) (protein)
chain: B1 chain with A71N, G252A
B8: E. coli OSBS (Escherichia coli K-12; A107N) (protein)
chain: MRSAQVYRWQIPMDAGVVLRDRRLKTRDGLYVCLREGEREGWGEISPLPGFSQETWEEAQSVLLAWVNNWLAGDCELPQMPSVAFGVSCALAELTDTLPQAANYRANPLCNGDPDDLILKLADMPGEKVAKVKVGLYEAVRDGMVVNLLLEAIPDLHLRLDANRAWTPLKGQQFAKYVNPDYRDRIAFLEEPCKTRDDSRAFARETGIAIAWDESLREPDFAFVAEEGVRAVVIKPTLTGSLEKVREQVQAAHALGLTAVISSSIESSLGLTQLARIAAWLTPDTIPGLDTLDLMQAQQVRRWPGSTLPVVEVDALERLL
B9: E. coli OSBS (Escherichia coli K-12; R20S) (protein)
chain: B8 chain with R20S, N107A
B10: E. coli OSBS (Escherichia coli K-12; L109T) (protein)
chain: B8 chain with N107A, L109T
B11: T. elongatus OSBS (Thermosynechococcus vestitus BP-1) (protein)
chain: MRWQWRIYEEPLQEPLTTAQGVWRSRSGIYLRLEDEQGQVGYGEIAPLPGWGSETLNADIALCQQLPGHLTPEIMATIPEALPAAQFGFATAWQSVGRLPYRVRPWPICALLGSGQAALEQWQQSWQRGQTTFKWKVGVMSPEEEQAILKALLAALPPGAKLRLDANGSWDRATANRWFAWLDRHGNGKIEYVEQPLPPDQWQALLSLAQTVTTAIALDESVVSAAEVQRWVDRGWPGFFVIKTALFGDPDSLSLLLRRGLEPQRLVFSSALEGAIARTAIFHLLETWQPCHALGFGVDRWRSAPLLTTLTAYERLWERLDQ
B12: T. elongatus OSBS (Thermosynechococcus vestitus BP-1; G295A) (protein)
chain: B11 chain with G295A

Where a chain is given by its changes, count along the chain named. Names and notes keep the numbering of the source.

Substrate in one series: O=C(O)CCC(=O)C1=CC=C[C@@H](O)[C@@H]1C(=O)O
The series can be described thus: purified protein. The note with it: 50 mM Tris pH 8.0, 0.1 mM MnCl2, 25°C. Type of series: biochemical, Thermobifida fusca.
B1: the Km (commonly the concentration of substrate that gives half-maximal velocity) was determined as 322 ± 56 µM; the kcat (usually the number of substrate molecules converted per active site and unit of time at saturation) was 10 ± 0.7 s⁻¹; the kcat/Km (as a rule, the turnover number divided by the Michaelis constant) came out at 31000 M⁻¹ s⁻¹.
In the case of B2, the Km is 470 ± 42 µM, the kcat was found to be 104 ± 4 s⁻¹ and the kcat/Km was found to be 220000 M⁻¹ s⁻¹.
Consider B3, for which the Km turned out to be 182 ± 22 µM, the kcat was 122 ± 4.6 s⁻¹ and the kcat/Km is 670000 M⁻¹ s⁻¹.
Take B4: the Km was found to be 7 ± 1.4 µM, the kcat was found to be 0.6 ± 0.02 s⁻¹ and the kcat/Km amounted to 86000 M⁻¹ s⁻¹.
B5: the Km is 666 ± 151 µM, the kcat is 163 ± 19 s⁻¹ and the kcat/Km came out at 250000 M⁻¹ s⁻¹.
Take B6: the Km is 668 ± 72 µM, the kcat is 13 ± 0.7 s⁻¹ and the kcat/Km was found to be 19000 M⁻¹ s⁻¹.
As for B7, the Km turned out to be 86 ± 6 µM, the kcat stood at 16 ± 0.3 s⁻¹ and the kcat/Km amounted to 190000 M⁻¹ s⁻¹.

Substrate in a further series: O=C(O)CCC(=O)C1=CC=C[C@@H](O)[C@@H]1C(=O)O
The series can be described thus: purified protein. The note with it: 50 mM Tris pH 8.0, 0.1 mM MnCl2, 25°C. Type of series: biochemical, Escherichia coli. This is another data set of the same source.
Consider B8, for which the Km worked out at 109 ± 17 µM, the kcat stood at 32 ± 1.9 s⁻¹ and the kcat/Km was 290000 M⁻¹ s⁻¹.
B9: the Km came out at 22 ± 0.1 µM, the kcat is 0.5 ± 0.1 s⁻¹ and the kcat/Km worked out at 23000 M⁻¹ s⁻¹.
In the case of B10, the Km was 83 ± 17 µM, the kcat turned out to be 3.6 ± 0.3 s⁻¹ and the kcat/Km came to 43000 M⁻¹ s⁻¹.

Substrate in another series: O=C(O)CCC(=O)C1=CC=C[C@@H](O)[C@@H]1C(=O)O
The series can be described thus: purified protein. The note with it: 50 mM Tris pH 8.0, 0.1 mM MnCl2, 25°C. Type of series: biochemical, Thermosynechococcus vestitus. This is another data set of the same source.
As to B11, the Km was found to be 78 ± 17 µM, the kcat turned out to be 80 ± 4 s⁻¹ and the kcat/Km stood at 1e+06 M⁻¹ s⁻¹.
Taken in the same sequence, the figures for B12 were 304 ± 82 µM, 4 ± 0.4 s⁻¹ and 13000 M⁻¹ s⁻¹.

The record behind these values is publication PMC3908897.
